One test concerns the target full-length GRB2 (human) (UniProt P62993). As to the kind of experiment: NMR titration; 15N-labelled full-length GRB2 (about 200-270 uM) titrated with SOS1 PRM peptides (up to 1:12 S4, 1:36 S5 and S9, 1:24 S10), 2D 1H-15N HSQC, 25 °C, 20 mM sodium phosphate, 0.05% NaN3; global fit of residues with CSP over 0.03 ppm to an independent two-site model (values in parentheses: single-binding site model).

Test [1] has as its target SOS1 S5 (Homo sapiens), Q07889. Description: NMR.

DSPPAIPPRQPT [SOS1 S5 PRM (…)]: in the test with full-length GRB2 (human), the KD1 (NSH3 site, independent two-site model) came to 40.9 µM; the KD2 (CSH3 site, independent two-site model) was 901 µM; the KD for NSH3, single-binding site model came out at 44.9 µM.

B1: GRB2 CSH3, P62993 (protein)
chain: QQPTYVQALFDFDPQEDGELGFRRGDFIHVMDNSDPNWWKGACHGQTGMFPRNYVTPVNR
For the molecule B1, in test [1], the Kd – broadly, the concentration at which binding is half-saturated – was 901 µM.
Regarding IAGPPVPPRQST [SOS1 S9 PRM (…)], in the test with full-length GRB2 (human), the KD1 (NSH3 site, independent two-site model) was 28.4 µM; the KD2 (CSH3 site, independent two-site model) came out at 516 µM; the KD for NSH3, single-binding site model amounted to 35 µM.

B2: GRB2 NSH3, P62993 (protein)
chain: MEAIAKYDFKATADDELSFKRGDILKVLNEECDQNWYKAELNGKDGFIPKNYIEMKPH
B2 came in with a Kd in test [1] of 40.9 µM.
As for PKLPPKTYKREH [SOS1 S10 PRM (…)], in the test with full-length GRB2 (human), the KD1 (NSH3 site, independent two-site model) stood at 483 µM and the KD2 (CSH3 site, independent two-site model) was determined as 579 µM.

Values taken from article PMC11391413.
